US6960658B1, “Maspin transcriptional regulatory sequences and uses thereof” (Dana-Farber Cancer Institute, Inc., priority 1996, dated 2005)

B1: Maspin: a serpin expressed in normal human mammary epithelial cells (protein, UniProt P36952 1-375, looked up)
Serpin B5: MDALQLANSAFAVDLFKQLCEKEPLGNVLFSPICLSTSLSLAQVGAKGDTANEIGQVLHFENVKDVPFGFQTVTSDVNKLSSFYSLKLIKRLYVDKSLNLSTEFISSTKRPYAKELETVDFKDKLEETKGQINNSIKDLTDGHFENILADNSVNDQTKILVVNAAYFVGKWMKKFSESETKECPFRVNKTDTKPVQMMNMEATFCMGNIDSINCKIIELPFQNKHLSMFILLPKDVEDESTGLEKIEKQLNSESLSQWTNPSTMANAKVKLSIPKFKVEKMIDPKACLENLGLKHIFSEDTSDFSGMSETKGVALSNVIHKVCLEITEDGGDSIEVPGARILQHKDELNADHPFIYIIRHNKTRNIIFFGKFCSP

Assays:
[1] = tested on: maspin HRE element (pBLAp1/HRE reporter) in CF3 and LNCaP cells; assay: CAT assay of pBLAp1/HRE construct with or without androgen (R1881) treatment; type: cell-based, human; conditions: 50 nM R1881 vs vehicle added after transfection
Experimental: For construction of pBLAp1/HRE, pairs of OL8 and OL9 oligos were annealed as described above. The annealed product was phosphorylated by T4 polynucleotide kinase, and ligated to the BamHI site of pBLAp1 (pBLCAT2 containing three copies of Ap1) to generate pBLAp1/HRE (FIG. 12).
Cells were plated at 1 ×106/p100 and grown to about 75% confluence. SNA was transfected by the method of modified DEAE-Dextran (Promega, Inc., Madison, Wis.). The amounts of DNAs used were: 10 μg reporter plasmid, except for PCMVCAT in which only 2 μg of DNA was used. 1 μg of pCMVβgal was used as an internal control for transfection efficiency. For the androgen treatment, 50 nM methyltrienolone.(R1881, from Du Pont-New England Nuclear, Inc., Boston, Mass.) or vehicle was added to the cultures after transfection. […] The β-galactosidase activity in the extracts was calculated as described by Swisshelm et al. (Cell Growth Differ. 5:133, 1994). Twenty units of extracts (calculated by β-galactosidase activity) were used for each CAT assay except for transfection with pCMVCAT positive control in which only 10 units of extracts were used because of high activity. […] Quantitation of acetylated […] and nonacetylated chloramphenicol was performed by cutting out the appropriate regions of the silica gel TLC plate and counting in BioFluor (DuPont, Wilmington, Del.). […]

[2] = tested on: tumor cells; conditions: expressed in tumor transfectants or added as recombinant maspin; Sheng et al. 1994; cited from earlier work
[3] = tested on: tumor cells; conditions: Sager et al. 1995; cited from earlier work

Row | Molecule | effect of R1881 treatment on HRE-mediated inhibition of promoter (CAT) activity [1] | invasion in a Boyden chamber assay [2] | mobility of tumor cells [3]
1 | C[C@]1(O)CC[C@H]2[C@@H]3CCC4=CC(=O)CCC4=C3C=C[C@@]21C [R1881, methyltrienolone] | Little difference in inhibition | – | –
2 | B1 | – | inhibits invasion | inhibit mobility of tumor cells
